US12202905B2, “Methods and compositions relating to adenosine receptors” (Twist Bioscience Corporation, priority 2021, dated 2025)
Numbering of substitutions follows the chain as printed. Names may count otherwise.

T1: A2b (Homo sapiens, UniProt P29275)
T1 construct: expressed in transfected cells; host or cells: CHO-K1
T1 sequence (P29275 1-332): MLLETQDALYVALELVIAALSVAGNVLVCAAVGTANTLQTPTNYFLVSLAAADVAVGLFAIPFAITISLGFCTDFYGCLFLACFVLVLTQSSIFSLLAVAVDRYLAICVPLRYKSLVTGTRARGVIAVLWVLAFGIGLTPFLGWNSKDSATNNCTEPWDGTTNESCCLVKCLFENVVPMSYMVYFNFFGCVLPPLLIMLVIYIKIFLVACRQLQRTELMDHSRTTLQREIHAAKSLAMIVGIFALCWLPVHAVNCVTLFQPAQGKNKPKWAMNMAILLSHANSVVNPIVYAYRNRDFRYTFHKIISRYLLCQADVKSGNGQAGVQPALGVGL

B1: A2A-17: A2AR variant; VH CDR1-3 SEQ ID NO 22/111/200 (antibody, V domains shown)
VH: EVQLVESGGGLVKPGGSLRLSCAASGFNIGNTYMHWFRQAPGKGLEWVGVINPNYGTTRYNDSVKGRFTISRDNSKNTLYLQMNSLRAEDTAVYYCARDYGSSSFDYWGQGTLVTVSS
VL: DIQMTQSPSSLSASVGDRVTITCKASQSVRNDVVWYQQKPGKAPKLLIYRGNTLRPGVPSRFSGSGSGTDFTLTISSLQPEDFATYYCQQYYGIPLTFGQGTKLEIK
B2: A2A-24: A2AR variant; VH CDR1-3 SEQ ID NO 29/118/207 (antibody, V domains shown)
VH: B1 VH
VL: B1 VL
B3: A2A-19: A2AR variant; VH CDR1-3 SEQ ID NO 24/113/202 (antibody, V domains shown)
VH: EVQLVESGGGLVKPGGSLRLSCAASGFTFSGYAMNWVRQAPGKGLEWVSTISGSGASTYYADSVKGRFTISRDNSKNTLYLQMNSLRAEDTAVYYCAAARGYKRWRLGRRYDYWGQGTLVTVSS
VL: DIQMTQSPSSLSASVGDRVTITCRASQSISDYLNWYQQKPGKAPKLLIYTASTLQSGVPSRFSGSGSGTDFTLTISSLQPEDFATYYCEQSYSTPWTFGGGTKLEIK
B4: A2A-26: A2AR variant; VH CDR1-3 SEQ ID NO 31/120/209 (antibody, V domains shown)
VH: B3 VH with V5L, K13Q, G31T, N35G, T50G, G55A, A56G, Y102H, K103W
VL: B3 VL with S28T, D31R, T50S, E89Q, W96H, L104V
B5: A2A-27: A2AR variant; VH CDR1-3 SEQ ID NO 32/121/210 (antibody, V domains shown)
VH: B3 VH with G31S, N35A, T50A, A56G, Y60F, K103W, G108W
VL: B3 VL with S30G, D31S, T50G, T53N, E89Q, S91G, T94A, W96R
B6: A2A-53: A2AR variant; VH CDR1-3 SEQ ID NO 58/147/236 (antibody, V domains shown)
VH: EVQLVESGGGLVKPGGSLRLSCAASGFNIIDDYMHWVRQAPGKGLEWVGMITDTGEPTDADSVKGRFTISRDNSKNTLYLQMNSLRAEDTAVYYCVYDYIYAMDYWGQGTLVTVSS
VL: DIQMTQSPSSLSASVGDRVTITCKASQNMGSNVAWYQQKPGKAPKLLIYSASHRSSGVPSRFSGSGSGTDFTLTISSLQPEDFATYYCQQWNYPRITFGQGTKLEIK
B7: A2A-51: A2AR variant; VH CDR1-3 SEQ ID NO 56/145/234 (antibody, V domains shown)
VH: EVQLVESGGGLVKPGGSLRLSCAASGYTFNDYYINWVRQAPGKGLEWVGDINPNNGANIYNDSVKGRFTISRDNSKNTLYLQMNSLRAEDTAVYYCARNYGSSYYALDYWGQGTLVTVSS
VL: DIQMTQSPSSLSASVGDRVTITCSASSSLSYMHWYQQKPGKAPKLLIYGASPRESGVPSRFSGSGSGTDFTLTISSLQPEDFATYYCRQMSSYPPTFGQGTKLEIK
B8: A2A-31: A2AR variant; VH CDR1-3 SEQ ID NO 36/125/214 (antibody, V domains shown)
VH: EVQLVESGGGLVKPGGSLRLSCAASGYLFTDYNMNWVRQAPGKGLEWVGWIYPGTGNTYNDSVKGRFTISRDNSKNTLYLQMNSLRAEDTAVYYCTALYYGSSWERYFDVWGQGTLVTVSS
VL: DIQMTQSPSSLSASVGDRVTITCRASQSISDYLNWYQQKPGKAPKLLIYGASPRESGVPSRFSGSGSGTDFTLTISSLQPEDFATYYCQQDNIWPYTFGQGTKLEIK

What was measured:
A2AR [1] = target: T2, A2AR (Homo sapiens, UniProt P29274); experiment: A2AR cell functional cAMP assays (allosteric and antagonistic); settings: NECA titration, IgG titration (NECA 0.5 uM), IgG titration (NECA 10 uM)
T2 sequence (P29274 whole entry): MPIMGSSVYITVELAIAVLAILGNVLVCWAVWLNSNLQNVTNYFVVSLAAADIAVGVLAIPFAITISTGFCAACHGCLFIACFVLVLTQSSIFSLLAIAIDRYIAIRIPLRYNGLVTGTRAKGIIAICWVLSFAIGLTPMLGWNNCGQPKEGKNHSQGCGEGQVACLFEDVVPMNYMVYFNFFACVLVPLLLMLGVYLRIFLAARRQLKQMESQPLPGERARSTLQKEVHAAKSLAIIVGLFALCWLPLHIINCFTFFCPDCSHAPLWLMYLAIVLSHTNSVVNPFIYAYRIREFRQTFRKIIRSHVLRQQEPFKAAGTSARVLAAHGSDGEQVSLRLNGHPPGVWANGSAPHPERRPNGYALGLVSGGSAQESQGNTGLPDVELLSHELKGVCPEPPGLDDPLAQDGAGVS
Experimental: Allosteric and Antagonistic cAMP Assays were Performed Using A2A Cell Lines

A2b = target: T1, A2b; experiment: A2b functional antagonistic cAMP assay (CHO-K1 cells); assay type: cell-based; settings: IgG 3× titration from 1000 nM, NECA 5 nM
Experimental: FIG. 46 depicts the functional cAMP assay performed on selected A2b antibodies. CHO-K1 cells were incubated with an A2b antibody. Next, the cells were stimulated using NECA. Activation of A2b was monitored based on 3′-5′-cyclic adenosine monophosphate (cAMP) production in the cell lines.
First, cells were pre-incubated with A2A-17, A2A-19, A2A-26, A2A-27, A2A-35, A2A-36, and A2A-83 at a 3× titration starting at 100 nM. […] The results are depicted in FIGS. 47B-47C.
An antagonistic cAMP assay at high levels of IgC and low ligand levels was performed. Cells were pre-incubated with A2A-17, A2A-19, A2A-26, A2A-27, A2A-35, A2A-36, A2A-83, and A2A-72 at a 3× titration starting at 1000 nM. […] The results are depicted in FIG. 47D. […] Properties of A2b are depicted in Table 23.

A2AR [2] = target: T2, A2AR; experiment: T cell activation assay (PBMCs, NECA, anti-CD3ε/CD28 beads, IFN-γ release); assay type: cell-based; parameters: endogenous in cells; host or cells: PBMCs; settings: for T cell activation: NECA 1 μM, IFN-γ release
Experimental: The cells were then activated by magnetic beads coating with anti-CD3ε/CD28 antibodies. Three days after incubation, the supernatant was collected for detecting IFN-γ release and evaluating T cell activation. ZM-241385 is potent and used as a selective small molecule A2A antagonist control.
A primary T-cell activation assay was performed as described above. Data is seen in FIG. 33D and Table 21.

[3] = system: human colon carcinoma (Colo205); experiment: In vivo colon carcinoma model, tumor volume; settings: mice with Colo205, tumor volume over 30 days
Experimental: Mice with human colon carcinoma (Colo205) were divided into 4 groups. Group 1 was the isotype control, Group 2 mice were treated with Anti-PD1, Group 3 mice were treated with variant A2A-77 and Group 4 mice were treated with variant A2A-81. Tumor volume is measured over 30 days. Results are depicted in FIGS. 34A-34D.
Additional studies were performed with mice treated with 10 mg/kg variant A2A-51 (Group 5), A2A-28 (Group 6), Ab7/PD1TAO15 (Group 7), and AZD4635 (Group 8). Mice were also treated with 20 mg/kg according to the schedule in FIG. 34E. Data is seen in FIGS. 34F-34K.

Molecule	function in cAMP assays (A2AR [1])	T cell activation (A2AR [2])	other results
B1	improved function		
B2	improved function		
B3	improved function		
B4	improved function		
B5	improved function		A2a/A2b antagonist properties (A2b): A2a antagonist that cross links with A2b, while also being an A2b antagonist
B6		T cell activation was observed	
B7		T cell activation was observed	T cell activation with more (high) NECA (A2AR [2]; high NECA): still works well; tumor size / tumor volume [3]: ability to reduce tumor volume
B8		T cell activation was observed	
